This is an account of results in patent publication CN107417789A.

This assay addresses 移除了糖基化位点(Asn-38)的H7 HA(A/鸡/意大利/99假病毒) (influenza A virus A/chicken/Italy/99 (H7)). The assay can be described thus: cell-based or functional assay.

For CR6261 (antibody), the H7假病毒中和 IC50 was more than 50 mg/L. Consider F10 (antibody), for which the H7假病毒中和 IC50 was more than 50 mg/L.
